One substance from article PMC12095637 can be followed below.

Like-named read-outs stand apart in the source and are kept apart here.

Common to all, as to experiment: SEC-MALS
A general note: SEC sorts molecules by how far they enter the pores of the column.

The target of test [1] is DdMICU (Dictyostelium discoideum MICU, residues 105–461) (Dictyostelium discoideum).
For test [2] the target is unchanged. This is another data set of the same source.
Test [3] shares this target. This is another data set of the same source.

What is called stoichiometry N is a count of units in the complex or per binding partner. Take “DdMICU (Dictyostelium discoideum MICU, residues 105–461) (domain or fragment)”: the results for the stoichiometry N in test [1], in test [2] and in test [3] were 2, 2 and 4, respectively.
